Data taken from patent US20070270364.

Target: GST-p68 fusion polypeptides

B1: histone acetyltransferase (HAT) region of p300 (protein)
chain: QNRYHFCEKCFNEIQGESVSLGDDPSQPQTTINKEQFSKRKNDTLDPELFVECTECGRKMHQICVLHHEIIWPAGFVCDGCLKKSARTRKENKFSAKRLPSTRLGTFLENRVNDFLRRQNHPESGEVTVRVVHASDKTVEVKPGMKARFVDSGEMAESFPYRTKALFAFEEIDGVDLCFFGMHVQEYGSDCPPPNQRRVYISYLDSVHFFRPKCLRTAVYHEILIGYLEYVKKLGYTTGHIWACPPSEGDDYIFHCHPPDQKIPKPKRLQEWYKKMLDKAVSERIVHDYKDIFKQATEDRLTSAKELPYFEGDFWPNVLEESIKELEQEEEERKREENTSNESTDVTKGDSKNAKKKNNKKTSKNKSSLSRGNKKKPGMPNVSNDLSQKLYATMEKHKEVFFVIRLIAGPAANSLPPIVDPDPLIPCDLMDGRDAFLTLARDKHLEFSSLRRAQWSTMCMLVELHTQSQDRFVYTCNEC
- in vitro 14C-acetylation of GST-p68 fusion polypeptides (autoradiogram): p300 indeed acetylated p68 polypeptides exclusively within its N-terminal 80 amino acids
